Numbering of substitutions follows the chain as printed.
Assays:
[1] = target: SARS-CoV-2 Spike (S) protein, wild type, full length (SARS-CoV-2, UniProt P0DTC2 14-1208)
HKU1 full length Spike = target: T1, HKU1 full length Spike (human coronavirus HKU1, UniProt Q5MQD0 13-1276)
T1 sequence: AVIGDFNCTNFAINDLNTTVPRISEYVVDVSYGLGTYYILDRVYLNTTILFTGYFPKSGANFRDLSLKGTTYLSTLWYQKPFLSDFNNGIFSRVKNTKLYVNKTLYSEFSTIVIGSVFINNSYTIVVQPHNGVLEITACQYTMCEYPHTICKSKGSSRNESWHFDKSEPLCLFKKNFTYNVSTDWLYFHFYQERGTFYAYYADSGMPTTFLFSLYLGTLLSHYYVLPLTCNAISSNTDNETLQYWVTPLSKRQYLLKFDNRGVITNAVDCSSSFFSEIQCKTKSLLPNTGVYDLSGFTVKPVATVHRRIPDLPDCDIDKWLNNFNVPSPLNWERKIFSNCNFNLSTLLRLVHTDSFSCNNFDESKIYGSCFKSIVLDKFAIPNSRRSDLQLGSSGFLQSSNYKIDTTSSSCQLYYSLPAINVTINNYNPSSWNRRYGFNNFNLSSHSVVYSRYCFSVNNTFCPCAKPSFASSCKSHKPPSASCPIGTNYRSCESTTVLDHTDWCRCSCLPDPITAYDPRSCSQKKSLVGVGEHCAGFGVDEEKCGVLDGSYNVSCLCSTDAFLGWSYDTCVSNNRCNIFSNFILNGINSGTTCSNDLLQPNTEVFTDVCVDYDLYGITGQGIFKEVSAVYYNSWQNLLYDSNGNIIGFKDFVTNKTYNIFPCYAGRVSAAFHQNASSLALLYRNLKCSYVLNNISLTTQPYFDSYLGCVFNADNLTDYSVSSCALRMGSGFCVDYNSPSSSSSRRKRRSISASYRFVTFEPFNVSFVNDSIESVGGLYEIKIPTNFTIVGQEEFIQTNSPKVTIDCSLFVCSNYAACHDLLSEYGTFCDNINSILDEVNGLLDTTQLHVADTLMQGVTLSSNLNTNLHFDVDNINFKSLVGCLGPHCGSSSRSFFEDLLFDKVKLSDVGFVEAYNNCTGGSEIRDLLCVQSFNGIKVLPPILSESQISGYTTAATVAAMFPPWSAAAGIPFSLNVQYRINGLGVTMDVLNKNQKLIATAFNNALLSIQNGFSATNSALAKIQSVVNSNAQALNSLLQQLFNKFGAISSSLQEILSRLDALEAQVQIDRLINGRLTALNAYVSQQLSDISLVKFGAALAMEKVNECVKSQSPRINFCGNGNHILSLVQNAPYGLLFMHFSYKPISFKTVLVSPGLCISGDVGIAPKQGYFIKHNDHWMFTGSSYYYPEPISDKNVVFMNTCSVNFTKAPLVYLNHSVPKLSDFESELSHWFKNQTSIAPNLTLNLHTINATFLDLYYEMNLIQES

[2] = target: SARS-CoV full length Spike (SARS-CoV, UniProt P59594 14-1190)
MERS full length Spike = target: T2, MERS full length Spike (MERS-CoV, UniProt K9N5Q8 18-1291)
T2 sequence: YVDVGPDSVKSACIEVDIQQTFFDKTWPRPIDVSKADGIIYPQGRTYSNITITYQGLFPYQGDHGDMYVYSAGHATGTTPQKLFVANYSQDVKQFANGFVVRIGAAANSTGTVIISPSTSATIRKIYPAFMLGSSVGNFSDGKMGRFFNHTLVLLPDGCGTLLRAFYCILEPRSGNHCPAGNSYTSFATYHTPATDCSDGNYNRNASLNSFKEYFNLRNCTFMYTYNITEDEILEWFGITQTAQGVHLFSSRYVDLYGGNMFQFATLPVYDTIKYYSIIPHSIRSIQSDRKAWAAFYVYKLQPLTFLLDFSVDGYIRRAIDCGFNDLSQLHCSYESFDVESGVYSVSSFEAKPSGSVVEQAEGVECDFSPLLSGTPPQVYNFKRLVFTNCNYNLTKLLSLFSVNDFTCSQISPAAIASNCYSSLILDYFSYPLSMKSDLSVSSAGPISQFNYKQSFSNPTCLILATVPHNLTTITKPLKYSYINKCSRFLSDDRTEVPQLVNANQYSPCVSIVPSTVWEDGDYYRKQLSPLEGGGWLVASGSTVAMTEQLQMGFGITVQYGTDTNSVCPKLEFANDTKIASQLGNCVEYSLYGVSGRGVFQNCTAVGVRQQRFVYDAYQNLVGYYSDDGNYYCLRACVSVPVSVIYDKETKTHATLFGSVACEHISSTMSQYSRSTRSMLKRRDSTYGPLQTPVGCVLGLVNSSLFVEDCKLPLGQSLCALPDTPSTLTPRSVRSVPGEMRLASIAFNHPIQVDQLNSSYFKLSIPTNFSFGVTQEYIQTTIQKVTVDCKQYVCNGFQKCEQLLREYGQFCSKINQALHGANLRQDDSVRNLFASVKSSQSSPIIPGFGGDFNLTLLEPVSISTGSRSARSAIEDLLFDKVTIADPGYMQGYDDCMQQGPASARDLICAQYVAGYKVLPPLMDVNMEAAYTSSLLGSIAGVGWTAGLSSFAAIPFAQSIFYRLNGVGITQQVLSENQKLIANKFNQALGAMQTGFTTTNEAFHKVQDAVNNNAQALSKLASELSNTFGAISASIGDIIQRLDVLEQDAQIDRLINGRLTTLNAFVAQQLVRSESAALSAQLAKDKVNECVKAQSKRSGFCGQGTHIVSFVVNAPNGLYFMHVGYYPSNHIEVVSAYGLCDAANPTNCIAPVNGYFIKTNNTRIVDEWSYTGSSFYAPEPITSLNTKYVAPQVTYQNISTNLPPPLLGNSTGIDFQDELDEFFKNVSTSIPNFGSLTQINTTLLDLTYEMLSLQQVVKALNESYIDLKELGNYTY

B1: antibody 288 (antibody, V domains shown)
VH: EVQLVESGGGLVQPGGSLRLSCAASGFTFSSYDMHWVRQATGKGLEWVSAIGTAGDTYYPGSVKGRFTISRENAKNSLYLQMNSLRAGDTAVYYCARGANRDYDILTGYYSYYYYGMDVWGQGTTVTVSS
VL: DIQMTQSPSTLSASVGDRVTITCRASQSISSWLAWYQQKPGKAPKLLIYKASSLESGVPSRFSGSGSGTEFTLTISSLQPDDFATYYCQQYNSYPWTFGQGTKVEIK
bead binding signal (fold over isotype) [1]: 495 fold over isotype

B2: antibody 294 (antibody, V domains shown)
VH: EVQLVESGGGLVQPGGSLRLSCAASGFTVSSNYMNWVRQAPGKGLEWVSVIYSGGSTYYADSVKGRFTISRDNSKNTLYLQMNSLRAEDTAVYYCARDLGPSGMDVWGQGTTVTVSS
VL: DIQMTQSPSSVSASVGDRVTITCRASQGISSWLAWYQQKPGKAPKLLIYAASSLQSGVPSRFSGSGSGTDFTLTISSLQPEDFATYYCQQANSFPLFGGGTKVEIK
bead binding signal (fold over isotype) [1]: 1230 fold over isotype

B3: antibody 295 (antibody, V domains shown)
VH: QVQLQESGPGLVKPSQTLSLTCTVSGGSISSSDYYWSWIRQPPGKGLEWIGYIYYSGSTYYNPSLKSRVTISVDTSKNQFSLKLSSVTAADTAVYYCARVVGYCSSTSCYVDYWGQGTLVTVSS
VL: EIVLTQSPATLSLSPGERVTLSCRASQSVSSYLAWYQQKPGQAPRLLIYDASNRATGIPARFSGSGSGTDFTLTISSLEPEDFAVYYCQQRSNWPPGLTFGGGTKVEIK
bead binding signal (fold over isotype) [1]: 599 fold over isotype

B4: antibody 300 (antibody, V domains shown)
VH: QVQLVESGGGVVQPGRSLTLSCAASGFTFSSYAMHWVRQAPGKGLEWVALISYDGNNKYYADSVKGRFTFSRDNSKNTLYLQMNSLRAEDTAVYYCARTNSGSYRTAFDYWGQGTLVTVSS
VL: DIQMTQSPSTLSASVGDRVTITCRASQSISIWLAWYQQKPGKAPKLLIYKASSLESGVPSRFSGSGSGTEFTLTISSLQPDDFATYYCQQYNSLWTFGQGTKVEIK
bead binding signal (fold over isotype) [1]: 721 fold over isotype

B5: antibody 301 (antibody, V domains shown)
VH: QVQLVQSGAEVKKPGASVKVSCKVSGYTLTELSMHWVRQAPGKGLEWMGGFDPEDGETIYAQKFQGRVTMTEDTSTDTAYMELSSLRSEDTAVYYCATAFCGGDCYPPDALDIWGQGTMVTVSS
VL: DIQMTQSPSSVSASVGDRVTITCRASQGISSWLAWYQQKPGKAPKLLIYAASSLQSGVPSRFSGSGSGTDFTLTISSLQPEDFATYYCQQANSFPLTFGGGTKVEIK
bead binding signal (fold over isotype) [1]: 865 fold over isotype

B6: antibody 266 (antibody, V domains shown)
VH: QVQLVESGGGVVQPGRSLRLSCAASGFNLSNYAMHWVRQPSGKGLEWVSLISYDGSIKYYTDSVKGRFTVSGDNSKNTLFLQMNSLRPDDSALYYCVRGGVSGPNSFDMWGQGTTVTVSS
VL: DVVMTQSPLSLPVTLGQPASISCRSSQSLVYSDGNTYVNWFQQRPGQSPRRLIYQVSIRASGVPDRFSGSGSGTDFALKISRVEAEDVGVYYCMQGTHWPVTFGQGTKVEIK
bead binding signal (fold over isotype) [1]: 473 fold over isotype

B7: antibody 303 (antibody, V domains shown)
VH: B6 VH with N31S, P40A, T61A, T78M, P88A, S106A, M109I
VL: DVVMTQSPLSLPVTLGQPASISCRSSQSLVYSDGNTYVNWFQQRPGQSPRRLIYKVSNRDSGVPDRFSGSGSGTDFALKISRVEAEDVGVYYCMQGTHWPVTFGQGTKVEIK
bead binding signal (fold over isotype) [1]: 341 fold over isotype

B8: antibody 260 (antibody, V domains shown)
VH: EVQLVESGGGLVQPGRSLRLSCAASGFTFDYYAMHWVRQAPGKGLEWVSGISWNSGTIGYADSVKGRFTISRDNAKNSLYLQMNSLRAEDTALYYCAKDSRPSGRYYYGMDVWGQGTTVTVSS
VL: not shown
bead binding signal (fold over isotype) [1]: 724 fold over isotype

B9: mAb 1444 (antibody, V domains shown)
VH: QVQLVQSGAEVKKPGASVKVSCKASGYTFTAYYMHWVRQAPGQGLEWMGWINPNSDDTNYAQKFQGRVTMTRDTSISTAYMELSRLRSDDTAVYYCAREEGVFTIGDRYFDLWGRGTLVSVSS
VL: QTVVTQEPSFSVSPGGTVTLTCGLSSGSVSTSYYPSWYQQTPGQAPRTLIYNTNTRSSGVPDRFSGSILGNKAALTITGAQADDESDYYCVLYMGSGIWVFGGGTKLTVLG
median fluorescence intensity, fold over isotype control (HKU1 full length Spike): 0.98 fold over isotype
median fluorescence intensity, fold over isotype control [2]: 1.03 fold over isotype
median fluorescence intensity, fold over isotype control (MERS full length Spike): 0.98 fold over isotype

B10: mAb 1495 (antibody, V domains shown)
VH: QVQLVESGGGVVQPGRSLRLSCTASGFTFSSYAMHWVRQAPGKGLEWVAVISYDGNNKYYGDSVKGRFTISRDNSKNTLYLQMNSLRAEDTAVYYCAKGADTPHYSGYHFLSVGYYFYGMDVWGQGTTVTVSS
VL: DIQMTQSPSSLSASVGDRVTITCRASQSISYYLNWYQQKPGKAPQLLIYAASSLQSGVPSRFSGSRSGTDFTLTISSLQPEDFATYYCQQSYSTPFTFGPGTKVDIKR
median fluorescence intensity, fold over isotype control (HKU1 full length Spike): 1.05 fold over isotype
median fluorescence intensity, fold over isotype control [2]: 1.08 fold over isotype
median fluorescence intensity, fold over isotype control (MERS full length Spike): 0.93 fold over isotype

B11: mAb 1538 (antibody, V domains shown)
VH: EVQLLESGGGLVQPGGSLRLSCAASGFTFSSYAMSWVRQAPGKGLEWVSGISDSGGSTYYADYVKGRFTISRDNSKDTLYLQMNSLRAEDTAVYYCAKDRGNEYALTHYYYYAMDVWGQGTTVTVSS
VL: DIQMTQSPSSLSASVGDRVTITCRASQSISSYLNWYQQKPGKAPKLLIYAAYSLQSGVPSRFSGGGSGTDFTLTISSLQPEDFATYFCQQSYSTPITFGQGTRLEIKR
median fluorescence intensity, fold over isotype control (HKU1 full length Spike): 0.97 fold over isotype
median fluorescence intensity, fold over isotype control [2]: 0.99 fold over isotype
median fluorescence intensity, fold over isotype control (MERS full length Spike): 0.95 fold over isotype

B12: mAb 1585 (antibody, V domains shown)
VH: QVQLVESGGGVVQPGRSLRLSCAASGFTFSRFTLHWVRQAPGKGLEWVAVISYDGSNKYYADSVKGRFTISRDNSKSTLYLQMNSLRAEDTGVYYCARDPSTVTGYFDYWGQGTLVTVSS
VL: SYVLTQPPSVSVAPGKTAKISCGGDSIGSKSVHWYQQKPGQAPVLVIYYDNDRPSGIPERFSGSNSGNTATLTISRVEAGDEADYYCQVWDIGVVFGGGTKLTVLG
median fluorescence intensity, fold over isotype control (HKU1 full length Spike): 0.88 fold over isotype
median fluorescence intensity, fold over isotype control [2]: 25.8 fold over isotype
median fluorescence intensity, fold over isotype control (MERS full length Spike): 0.94 fold over isotype

B13: antibody 263 (antibody, V domains shown)
VH: EVQLVQSGAEVKKPGATVKISCKVSGYTFTDYYMHWVQQAPGKGLEWMGLVDPEDGETIYAEKFQGRVTITADTSTDTAYMELSSLRSDDTAVYYCTTDLAFTIFGGRRGFDPWGQGTLVTVSS
VL: DIQLTQSPSFLSASVGDRVTITCRASQGISSYLAWYQQKPGKAPKLLIYAASTLQSGVPSRFSGSGSGTEFTLTISSLQPEDFATYYCQQLNSYDFGQGTRLEIK
bead binding signal (fold over isotype) [1]: 722 fold over isotype

From patent publication US20220356229A1 (published 2022)
